Reference: the supplement of paper PMC9170038

System: MS2 coat protein
Test: apparent KD of MS2 coat protein; designed switch direction (-1 OFF switch, 1 ON switch): 1; higher = weaker reporter binding
In short: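 The buffer was Tris-HCl pH 7.5 with KCl, MgCl2, BSA, DTT, tRNA and Tween-20. In it, SNAP-549-labelled MS2 coat protein was titrated in doubling steps from 0.7 or 1.5 nM to 3 µM over chip-bound RNA switches transcribed by stalled E. coli RNA polymerase on Illumina chips. Apparent KD is the per-design median over clusters of curve fits to normalised fluorescence.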

[1] = input ligand: microRNA oligo, concentration not stated
[2] = Eterna round: R95, input ligand: FMN 200 uM
[3] = Eterna round: R95, input ligand: microRNA oligo, concentration not stated
[4] = Eterna round: R95, input ligand: none

| Sequence | apparent KD of MS2 coat protein [1] [nM] | apparent KD of MS2 coat protein (input ligand: FMN 200 uM) [nM] | apparent KD of MS2 coat protein (input ligand: none) [nM] | apparent KD of MS2 coat protein [2] [nM] | apparent KD of MS2 coat protein [3] [nM] | apparent KD of MS2 coat protein [4] [nM] |
| --- | --- | --- | --- | --- | --- | --- |
| UAUUGUUCCUGAGGAUAUCAGUUGUUUGCAUUAUGAGAAGGCAGUACAUGAGGAUCACCCAUGUUGGGAUUUGAUAGAAUGAUA [JR_SSNG1_Sub007] (Eterna round: R96, puzzle: Same State NG 1) | 133 | – | – | – | – | – |
| UCAAGAUCGCGAGGAUAUCGCGAGGAUCACCCGUGAGAAGGCGCAGAGCCGAGGAUCACCCGGCUGAUCCUGAGGAGGAGGUAA (Eterna round: R96, puzzle: Same State NG 1) | 234 | 139 | 420 | – | – | – |
| UCAAUCAUGUAAGGAUAUGCAGCCGAAACGGCUGCAGAAGGUACUAUAAUUACAUGAGGAUCACCCAUGUUAUAAAAUUAAAAU [Mat - Same State NG 1 - JL mod - D69] (Eterna round: R96, puzzle: Same State NG 1) | 101 | 35.3 | 130 | – | – | – |
| UCACCUAUCGACAUGAGGAUCACCCAUGUGGAUUGAGCUUCCAAGGAUAUCGGCGCACAACCCAUCGAGAAGGUGGAAAGAUAC [Eternabot solution 32] (Eterna round: R96, puzzle: Same State NG 3) | 12.3 | 16.6 | 18 | – | – | – |
| UCAGUCAUGUAAGGAUAUGCAGCCGAAACGGCUGCAGAAGGUACUAUAAUUACAUGAGGAUCACCCAUGUUAUAAAAUUUAUAU [Mat - Same State NG 1 - JL mod - D64] (Eterna round: R96, puzzle: Same State NG 1) | 44.9 | 24.4 | 58.8 | – | – | – |
| UCGAGCGUACUUGCAGACAUGAGGAUCACCCAUGUAAAUGGGAAGGAUAUGGUACCGUUUCGGUACCAGAAGGUCCUAGGUGCU [salish99_SSNG3_r04_306] (Eterna round: R96, puzzle: Same State NG 3) | 327 | 250 | 1290 | – | – | – |
| UCGGGCGUACUUGCAGACAUGAGGAUCACCCAUGUAAAUGGGAAGGAUAUGGUACCGUUUCGGUACCAGAAGGUCCUGGGUGCU [salish99_SSNG3_r04_308] (Eterna round: R96, puzzle: Same State NG 3) | 281 | 810 | 1960 | – | – | – |
| UCUAGACAUGAGGAUCACCCAUGUCGAUAUGACACAGGAUAUCGGUACUCAUAGAGUACGCGAGAAGGGUGACUUC [Same State 1 - Mod of Vinnie Gere v.3] (puzzle: Same State 1) | – | – | – | 112 | 115 | 166 |
| UCUGCAAGAACAGGAUAUGGGUUCAGAGCGGGAGUGCGCUUUGAUACAUGAGGAUCACCCAUGUCCCAGAAGGGUUCAAGCGGC [Maedraedbi] (Eterna round: R96, puzzle: Same State NG 2) | 35.2 | 32.9 | 188 | – | – | – |
| UCUUGGUUUUUGCUCGUUUUUUGUGUUGAACAUGAGGAUCACCCAUGUAUUGUACAAUCCAAUUUAAUAAUGGUCCA [Mod of one of JR's submissions 3] (puzzle: Sensor for hsa-mir-208a) | – | – | – | 44.2 | 42.2 | 47.8 |
| UCUUGGUUUUUGCUCGUUUUUUGUGUUGAACAUGAGGAUCACCCAUGUAUUGUACAAUCCAAUUUAAUAAUGGUCCG [JMF 48] (Eterna round: R96, puzzle: Sensor for hsa-mir-208a) | 70.1 | 105 | 99.2 | – | – | – |
| UCUUGGUUUUUGCUCGUUUUUUGUGUUGAACAUGAGGAUCACCCAUGUAUUGUACAAUCCAAUUUAAUAAUGGUCCG [JMF 48] (puzzle: Sensor for hsa-mir-208a) | – | – | – | 74.7 | 81.7 | 94 |
| UCUUGGUUUUUGCUCGUUUUUUGUGUUGAACAUGAGGAUCACCCAUGUAUUGUACAGUCCAAUUUGAUAAUGGUCCG [JMF 54] (Eterna round: R96, puzzle: Sensor for hsa-mir-208a) | 28.1 | 50.2 | 55.1 | – | – | – |
| UCUUGGUUUUUGCUCGUUUUUUGUGUUGAACAUGAGGAUCACCCAUGUAUUGUACAGUCCAAUUUGAUAAUGGUCCG [JMF 54] (puzzle: Sensor for hsa-mir-208a) | – | – | – | 37.6 | 32.3 | 44 |
| UCUUGGUUUUUGCUCGUUUUUUGUGUUGAACAUGAGGAUCACCCAUGUAUUGUACGAUCCAGUUAGAUGGUGGUUUG [JR_SHM208A_Sub044] (puzzle: Sensor for hsa-mir-208a) | – | – | – | 63.1 | 70.1 | 91.9 |
| UCUUGGUUUUUGCUCGUUUUUUGUGUUGAACAUGAGGAUCACCCAUGUAUUGUACGAUCCGAUUUAAUAAUGGUCCG [JMF 62] (puzzle: Sensor for hsa-mir-208a) | – | – | – | 63.2 | 55.7 | 83.1 |
| UCUUGGUUUUUGCUCGUUUUUUGUGUUGAACAUGAGGAUCACCCAUGUAUUGUACGGUCCAGUUUAGUGGUAAUCCG [JMF 69] (puzzle: Sensor for hsa-mir-208a) | – | – | – | 33.9 | 20.6 | 36.8 |
| UCUUGGUUUUUGCUCGUUUUUUGUGUUGAACAUGAGGAUCACCCAUGUAUUGUACGGUCCGGUUUAAUAGUGGUCCG [JMF 14] (puzzle: Sensor for hsa-mir-208a) | – | – | – | 27.8 | 15.4 | 28.3 |
| UGAACCGUCACAGGAUAUCAUGCGAAAAUUGCGUGAGAAGGGUGGAUGUUGUGCUCAAAGUUCUACAUGAGGAUCACCCAUGUU [SameState NG1 #44] (Eterna round: R96, puzzle: Same State NG 1) | 33.5 | 61.9 | 60.5 | – | – | – |
| UGAAUAAUGUUAGGAUAUACAUGAGGAAUCCUCGUAGAAGGAACAUGACAUGAGGAUCACCCAUGUAGCGCUCCGUAGAGCGCA [Mat - Same State NG 1 - JL mod - D49] (Eterna round: R96, puzzle: Same State NG 1) | 39.5 | 111 | 250 | – | – | – |
| UGAAUACAUGAGGAUCACCCAUGUCAACGUAGUCGAGGAUAUGGGCAGCCGUGAGGCGUACUAGAAGGCGAAGAGG [JL-ss1-3.07 ViennaUCT mod] (puzzle: Same State 1) | – | – | – | 131 | 89.9 | 175 |
| UGAAUAGUUACAGGAUAUGAUCCGAAAAUUGGGUCAGAAGGGUGGGUGUUGUGCGCUAUGUGCUACAUGAGGAUCACCCAUGUU [SameState NG1 #36] (Eterna round: R96, puzzle: Same State NG 1) | 22.5 | 341 | 41.2 | – | – | – |
| UGAAUGGUGAUAGGAUAUACAUGAGGAAUCCUCGUAGAAGGAUCAUGACAUGAGGAUCACCCAUGUAGCGCUCAGAAGAGCGCA [Mat - Same State NG 1 - JL mod - D53] (Eterna round: R96, puzzle: Same State NG 1) | 42.4 | 129 | 83.9 | – | – | – |
| UGAAUGGUGAUAGGAUAUACAUGAGGAAUCCUCGUAGAAGGAUCAUGACAUGAGGAUCACCCAUGUAGCGCUCCGUAGAGCGCA [JL SSNG1 1.21] (Eterna round: R96, puzzle: Same State NG 1) | 19.7 | 53 | 154 | – | – | – |
| UGACACACGGCAGGAUAUCCUUAGCAAAGCUAAGGAGAAGGGCCUCAUGUCGUGGAAACGUGACAUGAGGAUCACCCAUGUUGC [Omei SS(NG)1 Cv7] (Eterna round: R96, puzzle: Same State NG 1) | 18.1 | 154 | 85 | – | – | – |
| UGACACACGGCAGGAUAUCGUUAGCAAAGCUAACGAGAAGGGCCUCAUGUCGUGGAAACGUGACAUGAGGAUCACCCAUGUUGC [Omei SS(NG)1 Cv10] (Eterna round: R96, puzzle: Same State NG 1) | 12.4 | 204 | 53.7 | – | – | – |
| UGCCUGUCCGAAGGAUAUCUCAGCGAUCUUUUGGGAGAAGGUCGGAUGCAACAUGAGGAUCACCCAUGUGUAUAUAUCGCUGAC [Eternabot solution 48] (Eterna round: R96, puzzle: Same State NG 1) | 13.9 | 17.7 | 20.1 | – | – | – |
| UGCUACUGGGUAGGAUAUUUAGGAUAUGGGAAAGACUAAGUCUGUAGGUCACCUAACCCAGAAGGAGAGAAGGACCAUUCAGCU [pwkr ssNG2 2FMN + F9.33] (Eterna round: R96, puzzle: Same State NG 2) | 55.3 | 29.5 | 32.7 | – | – | – |
| UGCUAGGAUAUCUUGAGGAUCACCCAGGAGAAGGAGUAAAGUUAGGAUAUCCUGAGGAUCACCCAGGAGAAGGAGCACAUACUC [pwkr ssNG3 DX 2xF5 +2xFMN.14] (Eterna round: R96, puzzle: Same State NG 3) | 79.8 | 50.7 | 58.4 | – | – | – |
| UGGAGACAUCAAGGAUAUGCUACCGUUUCGGUAGCAGAAGGUGAUCACAUGAGGAUCACCCAUGUAUGCAUGCGUGAGCGUGCU [JL SSNG1 3.53] (Eterna round: R96, puzzle: Same State NG 1) | 32.7 | 779 | 35.4 | – | – | – |
